From article doi:10.1101/2024.11.13.623522 (bioRxiv, 2024)

Target: T1, GST-tagged Shu (Shu-GST) (Drosophila, UniProt Q9W1I9 1-455)
T1 sequence (looked up): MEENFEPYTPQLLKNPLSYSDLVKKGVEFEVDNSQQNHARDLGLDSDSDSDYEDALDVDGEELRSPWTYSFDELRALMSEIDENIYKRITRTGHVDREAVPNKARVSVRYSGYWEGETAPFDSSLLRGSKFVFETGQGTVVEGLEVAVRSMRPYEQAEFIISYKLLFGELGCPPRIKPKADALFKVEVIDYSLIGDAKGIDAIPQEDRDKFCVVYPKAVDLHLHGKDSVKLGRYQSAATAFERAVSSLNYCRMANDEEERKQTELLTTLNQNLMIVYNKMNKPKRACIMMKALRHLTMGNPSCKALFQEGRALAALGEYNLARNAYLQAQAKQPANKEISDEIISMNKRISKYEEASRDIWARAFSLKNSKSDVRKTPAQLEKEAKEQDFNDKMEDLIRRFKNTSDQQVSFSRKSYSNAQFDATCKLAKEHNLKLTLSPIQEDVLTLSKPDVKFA
Assay: pull-down

B1: FLAG-tagged Armi S769I mutant, recombinant (natural protein, Drosophila, UniProt Q6J5K9 1-1188, looked up)
chain: MFTYVSKFFTNPDRNREDILESLDRENSFLDQKLMEEKMDQQLKANPNEINGVLSNKIAELTHGLSEMDVSKESSCTARKGVITSLDGDRGVIDKDVLFETKVAEDIILDLHVGCVVEYLTFTTGEAMRVVKVKSILEHSWEDTSQKEIEKAVDNLKNEKPTFFNTETRSVLGLISQRLASSIDVETEYGQLTVELDNIEMNFIPTNGDRVRLECNIQLDDGFVDKQGEILEVTKLFPTRIQEGEKCIVERVYVHMVVLGPETYILKTDLPTGTDLHLGDIVLADLIECQYSKFTRRAIKITPLEKNFGATKLTQQSSMGSSGSGKAVTVTGVNRFITAELWQKESVSLKLTNNLNRTLRLESITVCNDSESQLSVVSPLESKEISSGSEITVTFEIHTQFLGEAIEKYVLNFDLLKVRRVFTVIVCKTKEEVAEAEKRMIAAEALMAPGRNSQERSRFYANQVWCNKVDVIPGQQIVTKRRFVALRLGCFEVPKELRQICLTSERRQEMIKAIEQHYSFLTEPLSIKTYMHRFRLLLHLEEIECFVNFRNYDRDRAHFLRDGEFLTLQIENLAERRPSLVIGDTLRVINPWSDPDSQTTKSYEGIIHKVLFDRILLKFHSSFQEKYNGEDYRLEFYFSRYSFRKQHHAISKIVGVMGEDFLFPSKVTKRENPQLDVYMKDDDMYLYDSKLEWYNQSLNSIQKRAVFNILRGEAENIPYVLFGPPGSGKTMTLIETLLQLVRNLPGARILVGTPSNSSADLVTKRLIDIKALLQGDFIRLVSYNQVEKDLIPPEIMSYCATSDVGAVGSCEDKMMVTESGLKLRCQAKFIGTHRITISTCTTLGNFLQLGFPAGHFTHVLFDEAGQCTEPETMVPIVMLTKKRSQVVLSGDPRQLQSIVTSRIASKMGFSISFLERLLERSPYRKDLQRFPESSGYNPLVLTKLLYNYRALPSIMSIYSRLFYDDELIPVLSEKDSRESRLLSKLRCVFESEKDIPQAHGTFFYGIIGENRQNNDSPSWFNPQEVREVFLMTIALYRANVTADQIGIITPYQKQVKMLRSMFIGTDVVMPKIGSVEEFQGQERDIILISTVRSSEEILRMDARFSLGFVRCSKRLNVAVSRARAMMIIFGNPHLLAVDECWRQLILFCVKNNAYFGCDLPQMVINQKDEVPVCLETFVPSLNTTDDLN
pull-down efficiency relative to Armi WT: ~1.5 fold
